In the supplement of paper PMC9170038:

Tested on: MS2 coat protein
Assay: apparent KD of MS2 coat protein; designed switch direction (-1 OFF switch, 1 ON switch): -1; higher = weaker reporter binding
How it was run: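 Three titration conditions were used: no input, 200 uM small-molecule ligand, and an oligonucleotide input. In each, SNAP-549-labelled MS2 coat protein was raised from 0.7 or 1.5 nM, doubling, to 3 µM over designed RNA switches transcribed on Illumina chips by stalled E. coli RNA polymerase. Curve fits of normalised cluster fluorescence gave values whose per-design median over clusters is the apparent KD.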

[1] = input ligand: microRNA oligo, concentration not stated
[2] = Eterna round: R95, input ligand: FMN 200 uM
[3] = Eterna round: R95, input ligand: microRNA oligo, concentration not stated
[4] = Eterna round: R95, input ligand: none

Row | Sequence | apparent KD of MS2 coat protein [1] [nM] | apparent KD of MS2 coat protein (input ligand: FMN 200 uM) [nM] | apparent KD of MS2 coat protein (input ligand: none) [nM] | apparent KD of MS2 coat protein [2] [nM] | apparent KD of MS2 coat protein [3] [nM] | apparent KD of MS2 coat protein [4] [nM]
1 | UUCCUCACUUCUUUGACUCACAUGAGGAUCACCCAUGUAAUAUAGGAUAUGCAUUUUAUUUCUUUGCAGAAGGAUAUUAGUUUU [JR_ExcNG3_Sub088] (Eterna round: R96, puzzle: Exclusion NG 3) | 34.7 |  |  |  |  | 
2 | CAGGGCAUGCGAGGAUAUAGCAACAUGAGGAUCACCCAUGUAUAAGGGUGUCCUAGGCAUGCGCGCUAGAAGGCGCUGGUUCUC [Onreusve] (Eterna round: R96, puzzle: Exclusion NG 2) | 18.9 | 431 | 75.5 |  |  | 
3 | AAAUGAUGAGGAUAUACAUGAGGAUCACCCAUGUGUAAAAAUAAAUACACAAAAGAAAGUAGAAGGCAUCAAAA [Ex 3 May 12] (Eterna round: R96, puzzle: Exclusion 3) | 25.1 |  |  |  |  | 
4 | UCAAGUUUUUAGAUUCUUAACAUGAGGAUCACCCAUGUGCUCGUCUUGUUGUACUAUCACUCGAAAGUGAUAGUACA (Eterna round: R97, puzzle: Sensor, turn-off variant 1) |  | 43.5 | 46.4 |  |  | 
5 | AUUAUGUUAGGAUAUGCUUAUGGUGGAUAGUCCAAUGUGGUGCAGAAGGGACAUGAGGAUCACCCAUGUACUGA [EX4 #29] (Eterna round: R97, puzzle: Exclusion 4) |  | 70.5 | 58.6 |  |  | 
6 | UUUUUAUAUGAAGGAUAUACUUAACAUGAGGAUCACCCAUGUGGUGUUGUGAGUGAGUGAGUUUAGUAGAAGGUCAAUGAUUUG [JMF's solution 63] (Eterna round: R96, puzzle: Exclusion NG 2) | 237 | 894 | 563 |  |  | 
7 | GGGAUGUCAGGAUAUCCGAAAGUCUGCCAAUACGGCAGACAGGAGAAGGGACAUGAGGAUCACCCAUGUAAAGA [Aedxear] (puzzle: Exclusion 4) |  |  |  | 120 | 59.4 | 49.4
8 | ACGCCACAUGAGGAUCACCCAUGUGAGGAUAUGGCCUGUUUGGCGUGUGCUGGCUCUGUCAGAAGGCGCGUGGG [salish99_ex1_r4_039] (Eterna round: R97, puzzle: Exclusion 1) |  | 45.4 | 42.3 |  |  | 
9 | UCGCUGCGAGGAUAUACGUUCGCGCGCUUUCGUUUGCGCGUACAUGAGGAUCACCCAUGUAGAAGGCGCGCUGC [Apr-15 SS2-7] (puzzle: Exclusion 2) |  |  |  |  | 13.7 | 
10 | AAUACCCUGUUAGGAUAUAAUACCGAAGGAGUAUUAGAAGGGACAGUAAGGUACAUGAGGAUCACCCAUGUGAGAAUCUGUGCC [Edanxeve] (Eterna round: R96, puzzle: Exclusion NG 1) | 65.3 | 107 | 75.4 |  |  | 
11 | AAUUAACAAGCAGGAUCCUACAUGAGGAUCACCCAUGUGCUCGUCUUAUAAAGUACUAUCACGAAAGUGAUAGUACA [Mat - Sensor v3 - turn-off var 1 - Eli Mod - D74] (puzzle: Sensor v3, turn-off variant 1) |  |  |  | 224 | 566 | 197
12 | CGUCCUCUAGUUAGGAUAUUGUCUCGGAUACGAAACAAGAAGGGACAUGAGGAUCACCCAUGUAAUGAGGACGA [Malc #30 mod 16] (puzzle: Brourd's mod of Exclusion 4) |  |  |  |  | 27.3 | 
13 | AGAAAUGCCCAUGGCCACAAGCUUUUCGCUUGUCUUACUACAUGAGGAUCACCCAUGUAACAUGGGCUCCUGAUAAU [Resoriraqu] (puzzle: Sensor v3, turn-off variant 2) |  |  |  | 12.5 | 11 | 12
14 | GGGAAGGGAGGAUAUGAGGGAGAGAACAUGAGGAUCACCCAUGUGAGACCUCAGGAUCGAUCAGAAGGCCCGACCC [AK-MS2ROC-r4-exclusion5-13.1] (Eterna round: R97, puzzle: Exclusion 5) |  | 824 | 92.2 |  |  | 
15 | AUGUUGCGAGGAUAUAUAAGGAGGUUAAAAUUUAUUAUGGAACAUGAGGAUCACCCAUGUAGAAGGUGCAUAAC [JR_Ex2_Sub038] (Eterna round: R97, puzzle: Exclusion 2) |  | 49.6 | 55.7 |  |  | 
16 | AGGUGACAUGAGGAUCACCCAUGUAAGGAUAUACGGUUAGUGGAGAGUUGGAGGAGAGGUAGAAGGUACGGAGC [JR_Exclu1_Sub060] (puzzle: Exclusion 1) |  |  |  |  | 174 | 
17 | GGUGGACAUGAGGAUCACCCAUGUGAGGAUAUCGGCUGGUACGUGGUGGCUGGCAUCUCGAGAAGGCACAUAGU [Exclusion 1 V66] (puzzle: Exclusion 1) |  |  |  |  | 83.6 | 
18 | GAUAAAGGGCAGGAUAUGGCUGGAAAAUAUCCGCCAGAAGGGCCCACAUGAGGAUCACCCAUGUGUGGUCCGCG [Lere] (puzzle: Exclusion 6) |  |  |  | 52.3 | 17.3 | 19.1

Row | Sequence | apparent KD of MS2 coat protein [1] [nM] | apparent KD of MS2 coat protein (input ligand: FMN 200 uM) [nM] | apparent KD of MS2 coat protein (input ligand: none) [nM] | apparent KD of MS2 coat protein [2] [nM] | apparent KD of MS2 coat protein [3] [nM] | apparent KD of MS2 coat protein [4] [nM]
19 | CUUUUGUGAGGAUAUCAGUAGUAAAAAAAUAAAAUUACUUCUGAGAAGGCACAUGAGGAUCACCCAUGUUCCUC [salish99_ex4_r3_027] (puzzle: Exclusion 4) |  |  |  |  | 37.4 | 
20 | CUUAUGUGAGGAUAUCAGUAGUAAUACAAUAGUAUUACUACUGAGAAGGCACAUGAGGAUCACCCAUGUUCUUC [Exclusion 4 - Mod Omei Ex4 344 mod v.2] (puzzle: Exclusion 4) |  |  |  |  | 103 | 
21 | UAUUUAAUUAACAAGCUUUACAUGAGGAUCACCCAUGUGAUCAUGCUCGUCUUAGGUACAGGCUUCGGCCUGUACCA [Stov1/6-B2] (Eterna round: R97, puzzle: Sensor, turn-off variant 1) |  | 51.8 | 55.9 |  |  | 
22 | GGUCAGACGGUAGGAUAUUCAUAUCGAGUGACCCUUUCAUAACAUGAGGAUCACCCAUGUCGGUGGGAGAAGGGCCGUACGGCG [salish99_ExNG02_R04_008] (Eterna round: R96, puzzle: Exclusion NG 2) | 31.9 | 41 | 33.6 |  |  | 
23 | AAAGGACGAUUAGGAUAUUCGGUUCAAGGUAAAGAAGAAGGAAUCGUUCCAUACUUAACAUGAGGAUCACCCAUGUGGGUCUAG [Eternabot solution 38] (Eterna round: R96, puzzle: Exclusion NG 1) | 25.5 |  |  |  |  | 
24 | UGCAGACGAGGAUAUGAUAAUUAAUACAUGAGGAUCACCCAUGUAAUACUGAUCCAUGGAUCAGAAGGCGUCUGCU [E5/4-A3] (Eterna round: R97, puzzle: Exclusion 5) |  | 20.2 | 13.7 |  |  | 
25 | CUCAUUCGAGGAUAUGCAGAAUGGGUCCAAUCAUAAGACAUACAUGAGGAUCACCCAUGUAGAAGGCGGCCAUC [Eternabot (L1) Solution 59] (Eterna round: R97, puzzle: Exclusion 2) |  | 26 | 25.6 |  |  | 
26 | CGAUCGGUAGGAUAUACAUGAACCUUGGUUGUGAGGCCUAAACAUGAGGAUCACCCAUGUAGAAGGACCUCGUA [EX2 C.10] (Eterna round: R97, puzzle: Exclusion 2) |  | 13.9 | 13.8 |  |  | 
27 | AAAAGUUAAGGAUAUACAGGGAGCCGCGGCGUCUGGCCGCAACAUGAGGAUCACCCAUGUAGAAGGUAGCCAAA [Maatmaso] (puzzle: Exclusion 2) |  |  |  | 61.5 | 20.6 | 30.5
28 | AGCAAGUCAGGAUAUCAAAGCAGCUAUAUGCUGCCCGGGCUUGAGAAGGGACUUGAGGAUCACCCAAGUGAUAG [Titiar] (Eterna round: R97, puzzle: Exclusion 4) |  | 101 | 25.1 |  |  | 
29 | UGAUCUAGCGGAGGAUAUACAUGAGGAUCACCCAUGUAGAUAACAUGACCGUAGUCGUGUAACGUGUAGAAGGCCGCUAGAUCU [JL ENG2 3.68] (Eterna round: R96, puzzle: Exclusion NG 2) | 17 | 104 | 23 |  |  | 
30 | GGAGAGAGGCAGGAUAUGGGAGGGAGGACCGGACCAGAAGGGUUGACAUGAGGAUCACCCAUGUAGAGAUCCUC [AK-MS2ROC-r4-exclusion6-6.8] (Eterna round: R97, puzzle: Exclusion 6) |  | 563 | 1140 |  |  | 
31 | GUCGUGCGGCUGUGCUGUACGAGUACAUGAGGAUCACCCAUGUAGGAUAUGGUUCGUUUUGCGUGCUAGAAGGGCGUGCGUUUU [Excl-NG3-LRO17] (Eterna round: R96, puzzle: Exclusion NG 3) | 17 | 17.9 | 21.4 |  |  | 
32 | AGUAACCGUCACGAAAGUGAUGGUUACACAAGCAAAUGUACAUGAGGAUCACCCAUGUCCUCGUUUGCUCGUCUUAU [Sensor 3 - 49] (puzzle: Sensor v3, turn-off variant 2) |  |  |  | 26.9 | 96.7 | 31.2
33 | GUGUAGGCAGGAUAUACAUGAGGAUCACCCAUGUGAAUAAGAUAGAAUAAGAUAAAGUGUAGAAGGGUUAGUGU [Excluse me!!! 23 - Jieux - Exclusion 3] (puzzle: Exclusion 3) |  |  |  |  | 31.7 | 
34 | ACAUGAGGAUCACCCAUGUGACAAGAAUGGCUGACACAGAGAUAGGAUAUAGGUGCAUAUCUAACCUAGAAGGGUCAUGACUGG [Deportation 76 - Jieux - Exclusion NG 3] (Eterna round: R96, puzzle: Exclusion NG 3) | 23.3 | 40.2 | 26.5 |  |  | 
35 | AUCAGCUCGUCAGGAUAUGCACAUGAGGAUCACCCAUGUAAGAUCAAGCUGCUUCGGCAGCAAGUGCAGAAGGGACGAGCUGAU [ENG2/9-B2] (Eterna round: R96, puzzle: Exclusion NG 2) | 177 | 151 | 229 |  |  | 
